Results on 3 molecules are retold here after PMC3522258.

One data set addresses T1, CTD (human, UniProt O95786 792-925).
T1 sequence: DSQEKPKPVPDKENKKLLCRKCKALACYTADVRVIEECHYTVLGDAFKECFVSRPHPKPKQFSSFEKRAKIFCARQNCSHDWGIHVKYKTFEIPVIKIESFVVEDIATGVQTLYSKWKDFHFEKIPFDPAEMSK
Put plainly: EMSA.

The next data set addresses T2, full-length RIG-I (human, UniProt O95786 1-925).
T2 sequence: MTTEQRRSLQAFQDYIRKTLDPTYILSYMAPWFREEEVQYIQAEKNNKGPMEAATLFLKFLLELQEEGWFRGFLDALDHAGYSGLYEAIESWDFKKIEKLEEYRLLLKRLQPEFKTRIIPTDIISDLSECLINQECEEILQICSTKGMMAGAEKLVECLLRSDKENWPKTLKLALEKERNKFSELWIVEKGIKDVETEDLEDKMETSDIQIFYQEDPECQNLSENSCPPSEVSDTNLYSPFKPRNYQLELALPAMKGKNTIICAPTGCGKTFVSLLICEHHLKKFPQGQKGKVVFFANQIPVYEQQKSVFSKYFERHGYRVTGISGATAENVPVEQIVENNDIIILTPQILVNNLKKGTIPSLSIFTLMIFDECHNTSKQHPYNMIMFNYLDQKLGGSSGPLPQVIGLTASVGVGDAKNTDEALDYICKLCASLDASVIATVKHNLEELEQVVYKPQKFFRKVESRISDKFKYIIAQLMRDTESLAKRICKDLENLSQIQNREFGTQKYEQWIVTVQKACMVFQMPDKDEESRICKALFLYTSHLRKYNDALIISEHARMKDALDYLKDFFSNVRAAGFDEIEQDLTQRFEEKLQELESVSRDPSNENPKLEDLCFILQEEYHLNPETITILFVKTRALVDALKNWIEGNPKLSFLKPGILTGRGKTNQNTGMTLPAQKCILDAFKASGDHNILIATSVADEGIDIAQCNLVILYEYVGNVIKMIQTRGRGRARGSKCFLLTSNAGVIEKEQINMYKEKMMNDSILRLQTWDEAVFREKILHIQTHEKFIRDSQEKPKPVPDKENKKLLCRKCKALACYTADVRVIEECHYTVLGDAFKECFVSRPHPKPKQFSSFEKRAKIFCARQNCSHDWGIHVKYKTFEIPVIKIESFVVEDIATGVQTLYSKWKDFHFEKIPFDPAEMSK
Kind of data set: EMSA. In general terms: A gel shift assay detects complexes by their altered migration in electrophoresis.

For data set [1], the target named is T3, RIG-I (ΔCARDs) (human, UniProt O95786 229-925).
T3 sequence: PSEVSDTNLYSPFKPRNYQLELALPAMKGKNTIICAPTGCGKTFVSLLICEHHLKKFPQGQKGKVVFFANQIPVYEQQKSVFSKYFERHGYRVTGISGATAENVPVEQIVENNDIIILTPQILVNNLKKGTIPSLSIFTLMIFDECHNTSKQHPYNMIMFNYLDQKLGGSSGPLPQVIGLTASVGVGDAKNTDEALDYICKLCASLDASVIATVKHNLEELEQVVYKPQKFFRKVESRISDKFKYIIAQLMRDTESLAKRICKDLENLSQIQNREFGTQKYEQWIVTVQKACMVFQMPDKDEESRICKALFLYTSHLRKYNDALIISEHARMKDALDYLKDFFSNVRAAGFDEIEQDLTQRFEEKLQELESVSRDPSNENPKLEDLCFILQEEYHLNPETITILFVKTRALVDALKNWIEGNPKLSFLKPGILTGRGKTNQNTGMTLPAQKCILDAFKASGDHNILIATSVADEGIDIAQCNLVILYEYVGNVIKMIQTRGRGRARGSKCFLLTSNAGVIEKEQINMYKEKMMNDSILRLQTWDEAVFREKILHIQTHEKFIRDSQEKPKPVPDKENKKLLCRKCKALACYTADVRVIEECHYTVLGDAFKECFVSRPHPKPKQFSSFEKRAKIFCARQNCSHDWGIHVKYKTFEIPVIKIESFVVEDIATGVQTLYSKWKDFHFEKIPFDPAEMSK
Put plainly: EMSA.

The next data set has as its target T4, HD (helicase domain) (human, UniProt O95786 229-793).
T4 sequence: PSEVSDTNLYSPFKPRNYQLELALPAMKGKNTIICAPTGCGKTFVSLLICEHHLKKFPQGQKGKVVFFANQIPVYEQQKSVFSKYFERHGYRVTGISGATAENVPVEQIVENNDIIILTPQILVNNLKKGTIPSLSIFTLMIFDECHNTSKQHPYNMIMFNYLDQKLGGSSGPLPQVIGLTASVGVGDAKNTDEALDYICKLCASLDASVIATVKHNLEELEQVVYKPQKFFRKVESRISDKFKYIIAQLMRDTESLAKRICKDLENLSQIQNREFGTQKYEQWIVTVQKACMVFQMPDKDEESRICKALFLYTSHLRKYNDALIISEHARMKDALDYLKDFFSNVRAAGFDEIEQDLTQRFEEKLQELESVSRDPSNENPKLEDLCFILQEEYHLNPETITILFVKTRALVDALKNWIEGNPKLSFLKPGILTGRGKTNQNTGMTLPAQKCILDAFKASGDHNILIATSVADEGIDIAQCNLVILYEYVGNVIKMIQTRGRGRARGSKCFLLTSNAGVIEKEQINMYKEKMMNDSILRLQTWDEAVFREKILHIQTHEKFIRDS
Kind of data set: EMSA.

Data set [2] addresses T3, RIG-I (ΔCARDs). Put plainly: competition.

B1: 5'-ppp 14 dsRNA (dsRNA)
RNA 1: ACCUCCCACCCCCG
RNA 2: CGGGGGUGGGAGGU
modifications: 5'-triphosphate on top strand
For B1, the Kd (commonly the constant that tells how readily two partners part at equilibrium) with CTD is 0.5 ± 0.06 nM; in the data set with full-length RIG-I it was 0.159 ± 0.02 nM; with RIG-I (ΔCARDs) [1], 0.041 ± 0.002 nM; in the data set with HD (helicase domain) it was 760 ± 20 nM.

B2: 5'-OH 14 dsRNA (dsRNA)
RNA 1: ACCUCCCACCCCCG
RNA 2: CGGGGGUGGGAGGU
modifications: 5'-OH on top strand
In the case of B2, the Kd with CTD came out at 5900 ± 750 nM; with full-length RIG-I, 20 ± 3 nM; with RIG-I (ΔCARDs) [1], 3.6 ± 0.9 nM.

B3: 5'-OH 14 dsRNA, unlabeled competitor (dsRNA)
RNA 1: ACCUCCCACCCCCG
RNA 2: CGGGGGUGGGAGGU
modifications: 5'-OH
For the molecule B3, the Ki – broadly, the dissociation constant of the complex between target and ligand, obtained from inhibition or displacement – in the data set with RIG-I (ΔCARDs) [2] worked out at 13 nM.
